Assay [1] has as its target T1, murine galectin-9 (regular isoform), expressed in transiently transfected CHO cells (mouse, UniProt O08573 1-353).
T1 construct: Expressed from pIRES2-EGFP in CHO cells; not found on the cell surface, detected by intracellular staining of fixed cells; also called regular galectin-9; wt galectin-9
As to the kind of experiment: intracellular staining of galectin-9 transfected CHO cells, flow cytometry.

Assay [2] has as its target T2, galectin-9 of TK-1 cells (biotinylated membrane associated 40 to 60 kD band, 35 kD after PNGase F) (UniProt O08573-2 1-322, limits assumed, surface biotinylated with NHS-LC-Biotin).
T2 construct: Endogenous protein pulled down from cell lysate; also called 35 kD protein
As to the kind of experiment: pull-down from lysate of surface biotinylated TK-1 cells, Protein G-agarose, Western blot. How it is done:
FIG. 10A TK-1 cells express the highest level of TIM-3 ligand(s). Three T cell lines, TK-1, S49.1G.3PHA 100/0, and BW1547.G.1.4, were stained by biotinylated sTIM-3-Ig (0.4 mg/ml) at 1:20 (top row graphs) and 1:50 dilutions (center row graphs), and detected by anti-human IgG-Fc-PE for the TIM-3 ligand expression. All T cell lines are stained positively by TIM-3 fusions FACS analysis, among which up to 90% of TK-1 were positively stained by both flTIM-3-Ig and sTIM-3-Ig (bottom row graphs). […] Extracellular membrane associated proteins on live TK-1 cells were biotinylated by NHS-LC-Biotin in PBS pH7.9 buffer at room temperature. Reaction was stopped by DMEM medium after 1 hour incubation. Cell lysate from the biotinylated TK-1 cells was used in pull-down experiment by incubating with 5 μg flTIM-3-Ig, sTIM-3-Ig, TIM-2-Ig, and hIgG respectively plus Protein G-agarose beads at 4° C. Protein samples eluted from beads were treated with or without PNGase F to remove N-linked sugar chains, and applied to SDS-PAGE and Western blot. Only signals from biotinylated membrane associated proteins bound to avidin conjugated peroxidase and were detected by chemiluminescent signal. […]
On the technique in general: In western blotting, separated proteins are transferred to a membrane and probed.

Assay [3] deals with T3, recombinant galectin-9 (r-galectin-9) (mouse, UniProt O08573 1-353).
T3 construct: Any vector-derived tag is not described; also called purified recombinant galectin-9
T3 sequence (O08573 other isoform, or with tags, fused parts or gaps limits assumed): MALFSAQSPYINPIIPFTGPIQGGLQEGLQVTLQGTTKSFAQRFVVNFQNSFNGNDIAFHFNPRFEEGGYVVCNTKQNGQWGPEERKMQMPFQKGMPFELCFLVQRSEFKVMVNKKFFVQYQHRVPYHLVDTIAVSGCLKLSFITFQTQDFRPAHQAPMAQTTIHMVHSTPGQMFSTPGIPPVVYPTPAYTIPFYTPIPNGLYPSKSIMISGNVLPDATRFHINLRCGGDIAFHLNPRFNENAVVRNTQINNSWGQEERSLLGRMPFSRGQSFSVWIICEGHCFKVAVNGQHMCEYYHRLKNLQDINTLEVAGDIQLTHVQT
Nature of the assay: pull-down with protein G beads, SDS-PAGE, Coomassie blue. From the text:
(§1) FIG. 11A Both regular and long isoforms for galectin-9 (galectin-9 and galectin-9-L respectively) are able to bind to TIM-3. Protein sequences between two galectin-9 isoforms are identical except a 31 amino acid peptide insert in the hinge region of galectin-9-L. Murine cDNAs for isoforms of galectin-9 from TK-1 cells were subcloned into a eukaryotic bicistronic expression vector pIRES2-EGFP. The plasmids were transiently transfected into CHO cells respectively. Cells were fixed for intracellular staining with flTIM-3-Ig (top row graphs), sTIM-3-Ig (center row graphs), and hIgG (bottom row graphs) and detected by anti-human IgG-Fc-PE 48 hours after transfection. EGFP positive signals in FACS analyses indicated transfected cells. The anti-human IgG-Fc-PE was used to detect the binding from Ig fusions or hIgG. FIG. 11B Murine cDNAs for galectin-9 (first column graphs), -4 (second column graphs), -3 (third column graphs), and -1 (fourth column graphs) were subcloned into pIRES2-EGFP. The plasmids and the empty vector (fifth column graphs) that only produces EGFP were transiently transfected into CHO for intracellular staining by s-TIM-3-Ig respectively. The anti-human IgG-Fc-PE was used to detect sTIM-3-Ig binding. FIG. 11C Galectin-9 cDNA was subcloned into prokaryotic expression vector pTrcHis 2B. […]

Assay [4] addresses T4, galectin-9 R64A and R238A (double mutation in both CRD domains), expressed in CHO cells (mouse, UniProt O08573 1-353).
T4 construct: Intracellular staining; also called double mutant galectin-9
As to the kind of experiment: intracellular staining of transfected CHO cells by sTIM-3-Ig, flow cytometry. How it is done: (§2) FIGS. 12A-12C show galectin-9 recognizes the β-galactoside bond in oligosaccharide chains of TIM-3. FIG. 12A Galectin-9 expression plasmid was transiently transfected into CHO cells and fixed for intracellular staining by sTIM-3-Ig. Incubation buffers with different concentrations from 0 to 100 mM of α-lactose were used in the experiments. Bars in the histograph represent percentage of double positive cell population for EGFP and sTIM-3-Ig staining in presence of different concentration of a-lactose. FIG. 12B Two μg of r-galectin-9 was mixed with 4 μg sTIM-3-Ig in presence of different concentration of a-lactose from 0 to 100 mM in a pull-down experiment. Elutes from protein G beads were applied to SDS-PAGE and stained by Coomassie blue. A band at 50 kD represents sTIM-3-Ig, and the one at 38 kD stands for r-galectin-9. FIG. 12C CRD domains in galectin-9 are required for interaction with TIM-3. Constructs with mutation of R64A in N-terminal CRD domain (second column graphs), R238A in C-terminal CRD domain (third column graphs), or both (fourth column graphs) were generated and subcloned into expression vector pIRES2-EGFP. CHO cells were transiently transfected by wt (first column graphs) and mutant galection-9 expression plasmids (second through fourth column graphs) for intracellular staining by sTIM-3-Ig. EGFP and anti-human IgG-Fc-PE double positive standard for interaction between galectin-9 and sTIM-3-Ig.
A general note: A flow cytometer gives signals particle by particle.

Assay [5] has as its target T5, galectin-9 R64A (mutation in N-terminal CRD domain), expressed in CHO cells (mouse, UniProt O08573 1-353).
T5 construct: Intracellular staining; also called mutant galectin-9 N-terminal CRD
The assay is described as above. Here is the method: as §2

Assay [6] addresses T6, galectin-9 R238A (mutation in C-terminal CRD domain), expressed in CHO cells (mouse, UniProt O08573 1-353).
T6 construct: Intracellular staining; also called mutant galectin-9 C-terminal CRD
The assay is described as above. Here is the method:
as §2

The target of assay [7] is T7, murine galectin-9 long isoform (galectin-9-L), expressed in transiently transfected CHO cells (mouse, UniProt O08573 1-353).
T7 construct: Expressed from pIRES2-EGFP in CHO cells; intracellular staining of fixed cells
T7 sequence (O08573 whole entry, canonical isoform): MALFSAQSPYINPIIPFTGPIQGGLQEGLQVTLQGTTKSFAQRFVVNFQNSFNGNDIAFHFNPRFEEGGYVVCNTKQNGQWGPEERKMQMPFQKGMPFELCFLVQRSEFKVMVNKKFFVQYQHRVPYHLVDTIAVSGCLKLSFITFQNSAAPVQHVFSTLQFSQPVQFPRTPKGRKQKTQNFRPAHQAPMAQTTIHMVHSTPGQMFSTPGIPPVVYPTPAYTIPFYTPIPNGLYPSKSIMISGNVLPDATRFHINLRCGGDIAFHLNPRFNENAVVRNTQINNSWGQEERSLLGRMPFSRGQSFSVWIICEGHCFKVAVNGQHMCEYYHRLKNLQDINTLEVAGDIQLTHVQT
As to the kind of experiment: intracellular staining of transfected CHO cells, anti-human IgG-Fc-PE, flow cytometry.
Text: as §1, with “pIRES2-EGFP.” for “pIRES2-EGFP. The plasmids and the empty vector (fifth column graphs) that only produces EGFP were transiently transfected into CHO for intracellular staining by s-TIM-3-Ig respectively. The anti-human IgG-Fc-PE was used to detect sTIM-3-Ig binding. FIG. 11C Galectin-9 cDNA was subcloned into prokaryotic expression vector pTrcHis 2B.”
To confirm the interaction between galectin-9 and TIM-3, both galectin-9 isoform cDNAs were subcloned into an expression vector that bicistronically expresses EGFP protein. […] In transient transfection, expression of galectin-9 was not detected on the cell surface. […]

T6 sequence (O08573 other isoform, or with tags, fused parts or gaps R238A R238A): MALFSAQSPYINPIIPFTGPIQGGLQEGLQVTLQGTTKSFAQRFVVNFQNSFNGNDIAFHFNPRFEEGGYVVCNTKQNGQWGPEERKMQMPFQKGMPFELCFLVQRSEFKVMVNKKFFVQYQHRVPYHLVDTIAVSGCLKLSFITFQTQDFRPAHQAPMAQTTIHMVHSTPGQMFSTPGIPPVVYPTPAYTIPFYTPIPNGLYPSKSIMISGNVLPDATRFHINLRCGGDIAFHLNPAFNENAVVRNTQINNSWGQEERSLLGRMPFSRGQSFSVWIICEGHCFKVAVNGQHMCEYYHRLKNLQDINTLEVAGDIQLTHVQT
T1 sequence (O08573 other isoform, or with tags, fused parts or gaps): as the sequence (O08573 other isoform, or with tags, fused parts or gaps R238A R238A) above, with A238R counted along it
T4 sequence (O08573 other isoform, or with tags, fused parts or gaps R64A R238A R64A R238A): as the sequence (O08573 other isoform, or with tags, fused parts or gaps R238A R238A) above, with R64A counted along it
T2 sequence (O08573 other isoform, or with tags, fused parts or gaps limits assumed): as the sequence (O08573 other isoform, or with tags, fused parts or gaps R238A R238A) above, with D150N, A238R counted along it
T5 sequence (O08573 other isoform, or with tags, fused parts or gaps R64A R64A): as the sequence (O08573 other isoform, or with tags, fused parts or gaps R238A R238A) above, with R64A, A238R counted along it

B1: TIM-2-Ig (Fc fusion, UniProt Q8R183 22-231, looked up)
chain: HTAVQGLAGHPVTLPCIYSTHLGGIVPMCWGLGECRHSYCIRSLIWTNGYTVTHQRNSLYQLKGNISEGNVSLTIENTVVGDGGPYCCVVEIPGAFHFVDYMLEVKPEISTSPPTRPTATGRPTTISTRSTHVPTSTRVSTSTSPTPAHTETYKPEATTFYPDQTTAEVTETLPDTPADWHNTVTSSDDPWDDNTEVIPPQKPQKNLNKG
notes: Control Ig fusion; also called TIM-2 Ig fusion; not shown: Ig part of the fusion not described
As for B1, the binding result in assay [1] is “no binding”; in assay [2] it was “no binding (tested: 5 µg)”; in assay [3], “no binding”.

B2: soluble Tim-3-Ig fusion protein (s-Tim-3-Ig) (Fc fusion)
chain: LEDGYKVEVGKNAYLPCSYTLPTSGTLVPMCWGKGFCPWSQCTNELLRTDERNVTYQKSSRYQLKGDLNKGDVSLIIKNVTLDDHGTYCCRIQFPGLMNDKKLELKLDIKA
modifications: biotinylated in some cell staining experiments
notes: not shown: human IgG1 Fc tail
As to B2, the binding result is “no binding” in assay [4], “binds” in assay [5], “binds” in assay [6] and “binds” in assay [7].

B3: full-length Tim-3-Ig fusion protein (ex-Tim-3-Ig) (Fc fusion)
chain: RSLEDGYKVEVGKNAYLPCSYTLPTSGTLVPMCWGKGFCPWSQCTNELLRTDERNVTYQKSSRYQLKGDLNKGDVSLIIKNVTLDDHGTYCCRIQFPGLMNDKKLELKLDIKAAKVTPAQTAHGDSTTASPRTLTTERNGSETQTLVTLHNNNGTKISTWADEIKDSGETIRTA
modifications: biotinylated in some cell staining experiments
notes: expressed in NS.1 cells; also called flTIM-3-Ig; flTim-3-Ig; not shown: human IgG1 Fc tail
For the molecule B3, the binding result in assay [7] is given as “binds”.

The values are drawn from patent publication US20130183688A1 (BRIGHAM AND WOMEN S HOSPITAL, published 2013).
